Where no end group is shown, it is not given here. [ ]: non-standard residue; d: D form.
Legend:
[1] = Dissolution of peptide in serum; type: physicochemical; conditions: fetal bovine serum
Procedure: In order to investigate the effect of HA conjugation on the serum stability of peptide, raw peptide and three kinds of conjugate samples were dissolved in 0.5 mL of water and mixed with 0.5 mL of fetal bovine serum (FBS), respectively. In conjugates of peptide with HA derivative, the number of peptide molecules per single HA chain was 5, 19, and 33, respectively. […] Then, the solutions were incubated at 37° C. for 96 hours. The remaining amount of peptide was measured by GPC analysis after incubation for 12, 24, 48, 72, and 96 hours. Three replicates were carried out.

FPRL1 receptor [2] = target: T1, FPRL1 receptor (Homo sapiens, UniProt P25090); experiment: pERK level by Western blot in FPRL1 over-expressing RBL-2H3 cells after stimulation; type: cell-based
T1 construct: expressed in transfected cells; host or cells: RBL-2H3 (rat basophilic leukemia) cells over-expressing FPRL1, kept under G418 selection
T1 sequence (P25090 1-351): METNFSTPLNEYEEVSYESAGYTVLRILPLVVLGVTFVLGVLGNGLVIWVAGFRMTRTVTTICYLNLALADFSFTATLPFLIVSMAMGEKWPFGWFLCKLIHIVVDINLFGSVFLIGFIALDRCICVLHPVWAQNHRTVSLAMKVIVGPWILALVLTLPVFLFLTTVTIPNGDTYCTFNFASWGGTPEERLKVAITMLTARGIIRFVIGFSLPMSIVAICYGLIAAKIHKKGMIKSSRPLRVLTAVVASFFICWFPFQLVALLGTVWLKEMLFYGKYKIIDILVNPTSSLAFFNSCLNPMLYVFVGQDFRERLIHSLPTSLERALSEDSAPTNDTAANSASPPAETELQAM
Procedure: In order to investigate the effect of HA conjugation on the signal transduction activity of peptide, three kinds of samples were prepared, the raw peptide, conjugate of peptide with HA-AMEA, and conjugate of peptide with HA-AEMA after hyaluronidase treatment. In the conjugate samples, the number of peptide molecules per single HA derivative chain was 5, 8, and 23, respectively. Each sample of conjugate of peptide with HA-AEMA (0.4 mL, 1 mg/mL) was divided into two aliquots. One aliquot was mixed with 0.2 mL of hyaluronidase solution (400 units/mL) and the other was mixed with 0.2 mL of water. Then, the solutions were incubated at 37° C. overnight for the complete enzymatic degradation of HA. Three replicates were carried out for the following bioactivity tests measuring the intracellular level of pERK and calcium ion. […]
The prepared cells were aliquoted into 1×10^6 cells and stimulated with a control (no treatment), peptide (CWRYMVm, SEQ ID NO: 5), HA-AEMA, the mixture of peptide and HA-AEMA, and three kind of conjugate samples with and without hyaluronidase treatment. […] Protein concentrations in the lysates were determined by Bradford protein assay. […]
The data are expressed as means±S.D. from several separate experiments. […]

FPRL1 receptor [3] = target: T1, FPRL1 receptor; experiment: Co-treatment with antagonistic peptide, pERK Western blot in RBL-2H3/FPRL1 cells; type: cell-based; conditions: RBL-2H3/FPRL1 cells stimulated 5 min with CWRYMVm or HA-CWRYMVm conjugates (5, 8, 23)
Procedure: In order to investigate the effect of co-treatment with antagonistic peptide (C—WRWWWW (SEQ ID NO: 6), WRW4 (SEQ ID NO: 2) on the binding characteristics of the conjugates of peptide with HA-AEMA to FPRL1 receptor, the RBL-2H3/FPRL1 cells were stimulated with a control (no treatment), peptide (CWRYMVm, SEQ ID NO: 5), and three kinds of conjugate samples for 5 minutes in the presence and absence of C-WRWWWW (SEQ ID NO: 6), ([…], competitor for FPRL1 binding). The other procedures including electrophoresis and immunoblot analysis for Western blot was repeated in the same way as described above.

Substance	dissolution in serum [1]	pERK level normalized to peptide alone (100%) (FPRL1 receptor [2]; RBL-2H3/FPRL1 cells, 5 min stimulation, same peptide amount, without hyaluronidase treatment)	stimulation time of highest elevation of intracellular pERK level (FPRL1 receptor [2]; stimulation up to 30 min, Western blot)	intracellular level of pERK on co-treatment with antagonistic peptide (FPRL1 receptor [3])
Cys-Trp-Arg-Tyr-Met-Val-DMet (CWRYMV[dM]; also: conjugated with hyaluronic acid derivative) [CWRYMVm, Agonistic peptide for FPRL1 receptor; WRYMVm modified with cysteine]	not dissolved in serum completely	100%	5 min	
Trp-Arg-Trp-Trp-Trp-Trp (WRWWWW; also: conjugated with hyaluronic acid derivative) [FPRL1 antagonist peptide]				did not increase at all
